# Assay results published in paper PMC4837482, “The complex binding mode of the peptide hormone H2 relaxin to its receptor RXFP1” (Nature Communications, 2016).
# Residue numbers refer to the chain shown, from its start. Names may count otherwise. “Also recorded” adds a separate entry of the source. Where no end group is shown, it is not given here.
# B1: RXFP1 G41A/D42A, full length (receptor)
# chain: QDVKCSLGYFPCGNITKCLPQLLHCNGVDDCGNQADEDNCAANNGWSLQFDKYFASYYKMTSQYPFEAETPECLVGSVPVQCLCQGLELDCDETNLRAVPSVSSNVTAMSLQWNLIRKLPPDCFKNYHDLQKLYLQNNKITSISIYAFRGLNSLTKLYLSHNRITFLKPGVFEDLHRLEWLIIEDNHLSRISPPTFYGLNSLILLVLMNNVLTRLPDKPLCQHMPRLHWLDLEGNHIHNLRNLTFISCSNLTVLVMRKNKINHLNENTFAPLQKLDELDLGSNKIENLPPLIFKDLKELSQLNLSYNPIQKIQANQFDYLVKLKSLSLEGIEISNIQQRMFRPLMNLSHIYFKKFQYCGYAPHVRSCKPNTDGISSLENLLASIIQRVFVWVVSAVTCFGNIFVICMRPYIRSENKLYAMSIISLCCADCLMGIYLFVIGGFDLKFRGEYNKHAQLWMESTHCQLVGSLAILSTEVSVLLLTFLTLEKYICIVYPFRCVRPGKCRTITVLILIWITGFIVAFIPLSNKEFFKNYYGTNGVCFPLHSEDTESIGAQIYSVAIFLGINLAAFIIIVFSYGSMFYSVHQSAITATEIRNQVKKEMILAKRFFFIVFTDALCWIPIFVVKFLSLLQVEIPGTITSWVVIFILPINSALNPILYTLTTRPFKEMIHRFWYNYRQRKSMDSKGQKTYAPSFIWVEMWPLQEMPPELMKPDLFTYPCEMSLISQSTRLNSYS
# B2: RXFP1 G45A/W46A, full length (receptor)
# chain: B1 chain with A41G, A42D, G45A, W46A
# Key:
# RXFP1(1–72) = target: T1, RXFP1(1–72) (Homo sapiens, UniProt Q9HBX9); assay: NMR competition titration against the RXFP1(1–72)/Mn2+-DTPA-(A)-H2 complex; format: binding; conditions: 50 μM peptide added to 50 μM 15N-RXFP1(1–72) with 0.2 μM Mn2+-DTPA-(A)-H2; pH 6.8, 25 °C
# T1 construct: GB1 (N, cleaved yes); made in house; host or cells: E. coli BL21 (DE3) trxB
# T1 sequence (Q9HBX9 23-94 limits assumed): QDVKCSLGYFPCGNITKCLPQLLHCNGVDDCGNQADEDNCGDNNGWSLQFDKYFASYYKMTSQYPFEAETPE
# Method: All RXFP1(1–72) protein samples for nuclear magnetic resonance (NMR) experiments were prepared from lyophilized protein in 50 mM imidazole, with 10 mM CaCl2 at pH 6.8. Recombinant human gene-2 H2 relaxin peptide was kindly provided by Corthera. EL1^(475–486)/EL2-GB1 samples were prepared as described above. Titrant and titrand were dialyzed in the same buffer in the same vessel. All NMR experiments were routinely collected at 25 °C on a 700-MHz Bruker Avance HDIII spectrometer equipped with triple resonance cryoprobe. […] Backbone assignments were made from 3D HNCACB, HNCOCACB, HNCO and HNCACO experiments. Spectra were processed using NMRPipe (ref. [43]) and typically Fourier-transformed after applying Lorentz-to-Gauss window functions in the direct dimension and cosine bells in the indirect dimensions. NMR data were analysed using SPARKY (Goddard, T.D. and Kneller, D.G., University of California, San Francisco). Assignments of the mutant RXFP1(1–72) proteins were determined from the assignments of wild-type RXFP1(1–72).
# ^15N{^1H}-NOE experiments[45] (2,048 × 256 data points) were acquired with a saturation pulse of 4 s and an additional relaxation delay of 5 s. Sample conditions were 150 μM RXFP(1–72) or mutants either without or with 450 μM H2 relaxin. Binding to Mn^2+-DTPA-(A)-H2 to RXFP1(1–72) and mutants was monitored by recording 2D ^1H-^15N HSQC (2,048 × 256 data points) for 0.2 μM Mn^2+-DTPA-(A)-H2 against 50 μM RXFP1(1–72). H2 relaxin and its truncates such as A-chain (9–24), H2/I5 chimera and Phe23Ala A-chain mutant H2 were titrated into a complex of 50 μM RXFP1(1–72) and 0.2 μM Mn^2+-DTPA-(A)-H2 with increasing concentrations ranging from 5 to 50 μM.
# RXFP1 [1] = target: T2, RXFP1 (Homo sapiens, UniProt Q9HBX9); conditions: versus H2 relaxin; cited from earlier work
# T2 construct: transiently transfected human embryonic kidney (HEK) 293T cells expressing full-length RXFP1 and mutants; expressed in transfected cells; host or cells: HEK293T
# T2 sequence (Q9HBX9 1-757): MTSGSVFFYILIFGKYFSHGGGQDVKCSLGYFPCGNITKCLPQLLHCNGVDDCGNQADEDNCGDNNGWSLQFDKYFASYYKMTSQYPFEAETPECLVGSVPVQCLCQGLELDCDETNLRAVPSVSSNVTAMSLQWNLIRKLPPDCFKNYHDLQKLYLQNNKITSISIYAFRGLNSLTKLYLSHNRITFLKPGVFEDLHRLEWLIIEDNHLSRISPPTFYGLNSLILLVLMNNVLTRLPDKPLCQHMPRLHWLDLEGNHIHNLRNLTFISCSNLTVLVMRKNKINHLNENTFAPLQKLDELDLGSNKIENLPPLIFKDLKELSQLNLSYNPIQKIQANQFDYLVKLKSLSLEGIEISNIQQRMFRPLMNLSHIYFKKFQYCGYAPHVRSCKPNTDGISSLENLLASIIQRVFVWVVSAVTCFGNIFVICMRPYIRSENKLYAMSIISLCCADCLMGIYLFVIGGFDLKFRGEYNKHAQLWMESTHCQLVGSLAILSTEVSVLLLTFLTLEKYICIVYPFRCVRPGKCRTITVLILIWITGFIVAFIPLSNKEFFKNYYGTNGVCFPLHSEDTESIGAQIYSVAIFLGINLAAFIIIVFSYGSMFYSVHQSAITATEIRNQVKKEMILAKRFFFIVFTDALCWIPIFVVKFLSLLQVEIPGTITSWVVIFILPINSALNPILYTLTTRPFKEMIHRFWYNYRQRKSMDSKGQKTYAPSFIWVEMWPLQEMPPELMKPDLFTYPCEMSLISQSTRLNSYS
# RXFP1 [2] = target: T2, RXFP1; conditions: versus H2 relaxin; cited from earlier work; remark: listed apart in the source
# [3] = target: T3, Europium-labelled H2 relaxin (human, UniProt P04090 162-185; P04090 25-53, DTPA cage loaded with Eu^3+ on the N-terminus of the A-chain); assay: europium-labelled ligand saturation binding on cells (time-resolved fluorescence); HEK293T cells transiently transfected with receptor, 96-well plates; increasing Eu-H2 relaxin (maximum 15 nM) with or without 1 μM unlabelled H2 relaxin, 1 h, room temperature; 20 mM HEPES pH 7.5, 1.5 mM CaCl2, 50 mM NaCl, 0.01% NaN3, 1% BSA; one-site fit; conditions: one partner purified
# T3 construct: A chain of human gene-2 (H2) relaxin; numbers count on: the A chain; B chain of human gene-2 (H2) relaxin; numbers count on: the B chain; also called Eu-H2 relaxin; Eu-H2
molecule,measurement,setting,value
"A-chain (9–24) H2: N-terminally truncated A-chain (9–24) H2 peptide (KCCHVGCTKRSLARFC; ends and bridges not checked; cysteine pairing not given here; UniProt P04090 170-185, looked up, fragment)","competition with Mn2+-DTPA-(A)-H2 for RXFP1(1–72) (peak intensities, chemical shifts)",RXFP1(1–72),the gain in peak intensity was not as pronounced as that recorded with native H2 peptide
same,affinity for RXFP1,RXFP1 [1],decreased
same,potency for RXFP1,RXFP1 [2],decreased
"F23A: H2 relaxin mutant F23A; destabilizes the secondary structure of the A-chain (QLYSALANKCCHVGCTKRSLARAC; ends and bridges not checked; cysteine pairing not given here; UniProt P04090 162-185, looked up, variant F23A)","competition with Mn2+-DTPA-(A)-H2 for RXFP1(1–72) (peak intensities, chemical shifts)",RXFP1(1–72),did not compete
same,binding affinity for RXFP1,RXFP1 [1],significant loss
same,activation of RXFP1,RXFP1 [2],significant loss
"H2-(B1–25): B-chain truncate of H2 relaxin (DSWMEEVIKLCGRELVRAQIAICGM; ends and bridges not checked; cysteine pairing not given here; UniProt P04090 25-49, looked up, fragment)","competition with Mn2+-DTPA-(A)-H2 for RXFP1(1–72) (peak intensities, chemical shifts)",RXFP1(1–72),did not detect any significant difference in binding
same,affinity at RXFP1,RXFP1 [1],retain their native affinity and potency
same,potency at RXFP1,RXFP1 [2],retain their native affinity and potency
"H2-(B5–29): B-chain truncate of H2 relaxin (EEVIKLCGRELVRAQIAICGMSTWS; ends and bridges not checked; cysteine pairing not given here; UniProt P04090 29-53, looked up, fragment)","competition with Mn2+-DTPA-(A)-H2 for RXFP1(1–72) (peak intensities, chemical shifts)",RXFP1(1–72),did not detect any significant difference in binding
same,affinity at RXFP1,RXFP1 [1],retain their native affinity and potency
same,potency at RXFP1,RXFP1 [2],retain their native affinity and potency
"H2/I5-2: A-chain H2 chimeric analogue; His12 and Val13 (H2) replaced by Thr12 and Asp13 (INSL5) (QLYSALANKCCTDGCTKRSLARFC; ends and bridges not checked; cysteine pairing not given here; UniProt P04090 162-185, looked up, variant H12T V13D)","competition with Mn2+-DTPA-(A)-H2 for RXFP1(1–72) (peak intensities, chemical shifts)",RXFP1(1–72),no changes were observed in peak intensities or chemical shifts; also recorded: could not bind
same,binding affinity for RXFP1,RXFP1 [1],modest loss of binding
same,activation of RXFP1,RXFP1 [2],retains the ability to activate
B1,Kd,[3],> 20 nM
B2,Kd,[3],> 20 nM
